Source: paper PMC10091538, “The H2TH-like motif of the Escherichia coli multifunctional protein KsgA is required for DNA binding involved in DNA repair and the suppression of mutation frequencies”

T1: His-KsgA (1-273) (Escherichia coli, UniProt P06992 1-273)
T1 sequence: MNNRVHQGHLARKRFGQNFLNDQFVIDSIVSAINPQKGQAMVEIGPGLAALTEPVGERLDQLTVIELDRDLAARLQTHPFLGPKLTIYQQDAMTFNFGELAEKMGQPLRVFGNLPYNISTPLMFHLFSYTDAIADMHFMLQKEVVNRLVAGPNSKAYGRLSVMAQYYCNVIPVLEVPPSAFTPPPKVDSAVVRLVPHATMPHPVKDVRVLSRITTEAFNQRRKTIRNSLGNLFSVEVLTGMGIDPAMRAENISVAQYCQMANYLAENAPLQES

T2: His-KsgA (1-213) (Escherichia coli, UniProt P06992 1-213, del214-273)
T2 sequence: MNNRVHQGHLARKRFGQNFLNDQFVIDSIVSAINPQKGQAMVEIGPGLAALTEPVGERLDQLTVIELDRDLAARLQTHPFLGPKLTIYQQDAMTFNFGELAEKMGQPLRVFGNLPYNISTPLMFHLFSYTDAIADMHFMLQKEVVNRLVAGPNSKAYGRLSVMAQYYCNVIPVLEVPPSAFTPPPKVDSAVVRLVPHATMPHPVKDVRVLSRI

T3: His-KsgA (9-273) (Escherichia coli, UniProt P06992 9-273, del1-8)
T3 sequence: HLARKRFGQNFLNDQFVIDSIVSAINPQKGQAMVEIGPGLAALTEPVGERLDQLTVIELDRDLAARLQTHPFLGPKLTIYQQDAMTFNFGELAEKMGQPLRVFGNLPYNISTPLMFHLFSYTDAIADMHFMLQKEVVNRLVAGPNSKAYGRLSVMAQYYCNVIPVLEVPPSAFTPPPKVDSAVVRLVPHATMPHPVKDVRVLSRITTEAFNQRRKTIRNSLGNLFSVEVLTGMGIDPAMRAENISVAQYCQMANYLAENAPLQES

B1: Tg/C duplex (dsDNA)
DNA 1: GCTGCCCGGGGGTTCCTCTTGTTC
DNA 2: GAACAAGAGTAACCCCCGGGCAGC
modifications: thymine glycol (Tg) opposite C
B2: 5-ohC/A duplex (dsDNA)
DNA 1: GAACTAGTGCATCCCCCGGGCTGC
DNA 2: GCAGCCCGGGGGATACACTAGTTC
modifications: 5-hydroxycytosine (5-ohC) opposite A
B3: 5-ohC/T duplex (dsDNA)
DNA 1: GAACTAGTGCATCCCCCGGGCTGC
DNA 2: GCAGCCCGGGGGATTCACTAGTTC
modifications: 5-hydroxycytosine (5-ohC) opposite T
B4: 5-ohC/C duplex (dsDNA)
DNA 1: GAACTAGTGCATCCCCCGGGCTGC
DNA 2: GCAGCCCGGGGGATCCACTAGTTC
modifications: 5-hydroxycytosine (5-ohC) opposite C
B5: 5-ohC/G duplex (dsDNA)
DNA 1: GAACTAGTGCATCCCCCGGGCTGC
DNA 2: GCAGCCCGGGGGATGCACTAGTTC
modifications: 5-hydroxycytosine (5-ohC) opposite G
B6: 5-foU/C duplex (dsDNA)
DNA 1: GGTACCTTCAGTCGACC
DNA 2: GGTCGACTUAAGGTACC
modifications: 5-formyluracil (5-foU) opposite C

Experiments:
Experiment in all cases: EMSA; 100 pmol protein, 10 fmol DNA, 500 ng calf thymus DNA; EMSA, 10 ul, 4 C, 60 min: 25 mM Tris-HCl pH 8.0, 500 uM DTT, 500 uM EDTA, 10% glycerol, 25 mM NaCl, 25 mM KCl, 10 uM ZnCl2, 125 uM each dNTP, 4 mM spermidine, 500 ng calf thymus DNA, 10 fmol 32P-dsDNA, 100 pmol protein; 12% PAGE
Settings in all cases: protein: recombinant; tags: His (pET21a(+), BamHI/XhoI); label: 5'-32P
His-KsgA (1-273) = target: T1, His-KsgA (1-273)
His-KsgA (1-213) = target: T2, His-KsgA (1-213)
His-KsgA (9-273) = target: T3, His-KsgA (9-273)

Binder	binding result (His-KsgA (1-273))	binding result (His-KsgA (1-213))	binding result (His-KsgA (9-273))
B1	binds	no binding	binds
B2	binds	no binding	binds
B3	binds	no binding	binds
B4	binds	no binding	binds
B5	binds	no binding	binds
B6	binds	–	binds
